Measurements: patent US20210040155A1 (RHYTHM PHARMACEUTICALS, published 2021)
Bridge positions count the residues as written; N and C are the ends. Square brackets hold non-standard residues; d marks the D form. dPhe(4-F) = N[C@H](Cc1ccc(F)cc1)C(=O)O; Pen = CC(C)(S)[C@H](N)C(=O)O; hCys = N[C@@H](CCS)C(=O)O

How the values were obtained:
Assay in all cases: cell-based or functional assay
melanocortin-4 receptor = melanocortin-4 receptor (human, UniProt P32245 1-332)
melanocortin-5 receptor = melanocortin-5 receptor (human, UniProt P33032 1-325)
Chain of melanocortin-5 receptor (P33032 whole entry): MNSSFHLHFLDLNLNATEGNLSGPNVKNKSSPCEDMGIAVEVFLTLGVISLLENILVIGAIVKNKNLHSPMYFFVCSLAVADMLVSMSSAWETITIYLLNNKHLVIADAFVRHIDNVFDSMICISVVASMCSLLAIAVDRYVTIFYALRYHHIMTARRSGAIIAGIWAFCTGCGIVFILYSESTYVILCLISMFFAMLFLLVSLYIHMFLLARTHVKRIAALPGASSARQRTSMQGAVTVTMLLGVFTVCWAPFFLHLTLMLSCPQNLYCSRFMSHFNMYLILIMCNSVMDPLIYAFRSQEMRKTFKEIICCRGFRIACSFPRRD

melanocortin-1 receptor = melanocortin-1 receptor (human, UniProt Q01726 1-317)
Chain of melanocortin-1 receptor (Q01726 whole entry): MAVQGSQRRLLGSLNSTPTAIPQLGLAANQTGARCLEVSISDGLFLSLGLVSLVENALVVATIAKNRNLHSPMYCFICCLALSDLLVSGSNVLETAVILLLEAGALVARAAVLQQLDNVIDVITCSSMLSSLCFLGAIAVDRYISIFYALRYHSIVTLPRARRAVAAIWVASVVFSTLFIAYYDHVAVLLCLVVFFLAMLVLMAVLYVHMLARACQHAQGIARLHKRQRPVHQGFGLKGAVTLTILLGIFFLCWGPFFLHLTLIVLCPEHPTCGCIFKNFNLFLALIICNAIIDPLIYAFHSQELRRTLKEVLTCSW

melanocortin-3 receptor = melanocortin-3 receptor (human, UniProt P41968 1-323)
Chain of melanocortin-3 receptor (P41968 whole entry): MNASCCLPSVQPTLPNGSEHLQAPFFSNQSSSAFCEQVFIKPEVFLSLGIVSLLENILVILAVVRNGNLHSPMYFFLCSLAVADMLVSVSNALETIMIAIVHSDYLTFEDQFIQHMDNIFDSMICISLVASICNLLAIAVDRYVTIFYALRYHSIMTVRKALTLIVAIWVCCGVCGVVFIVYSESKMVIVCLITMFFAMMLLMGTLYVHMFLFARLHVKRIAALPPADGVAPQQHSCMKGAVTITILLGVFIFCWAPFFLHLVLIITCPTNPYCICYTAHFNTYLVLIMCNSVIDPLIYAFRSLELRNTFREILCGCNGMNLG

Chain of melanocortin-4 receptor (P32245 whole entry): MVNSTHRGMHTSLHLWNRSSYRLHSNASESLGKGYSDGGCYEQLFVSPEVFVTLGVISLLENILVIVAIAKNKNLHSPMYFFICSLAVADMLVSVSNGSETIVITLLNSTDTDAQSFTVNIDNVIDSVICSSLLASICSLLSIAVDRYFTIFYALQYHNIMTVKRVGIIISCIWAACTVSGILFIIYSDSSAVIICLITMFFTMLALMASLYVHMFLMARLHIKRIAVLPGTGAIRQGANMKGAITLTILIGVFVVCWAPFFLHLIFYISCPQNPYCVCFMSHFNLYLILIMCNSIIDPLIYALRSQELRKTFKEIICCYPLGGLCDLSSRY

| Binder | cAMP Assay (EC-50) (melanocortin-4 receptor) | Ratios of EC50 values MC 5/4 (MC5R against MC4R) (melanocortin-5 receptor) | cAMP Assay (EC-50) (melanocortin-5 receptor) | Ratios of EC50 values MC 1/4 (MC1R against MC4R) (melanocortin-1 receptor) | cAMP Assay (EC-50) (melanocortin-1 receptor) | Ratios of EC50 values MC 3/4 (MC3R against MC4R) (melanocortin-3 receptor) | cAMP Assay (EC-50) (melanocortin-3 receptor) |
| --- | --- | --- | --- | --- | --- | --- | --- |
| Ac-RC[dA]P[dF]RWC-NH2 (disulfide 2-8; SMILES CC(=O)N[C@@H](CCCNC(=N)N)C(=O)N[C@H]1CSSC[C@@H](C(N)=O)NC(=O)[C@H](Cc2c[nH]c3ccccc23)NC(=O)[C@H](CCCNC(=N)N)NC(=O)[C@@H](Cc2ccccc2)NC(=O)[C@@H]2CCCN2C(=O)[C@@H](C)NC1=O) [Ac-Arg-cyclo[Cys-D-Ala-Pro-D-Phe-Arg-Trp-Cys]-NH2] | 56 nM | 13 ratio | 707 nM | 5 ratio | 280 nM | > 200 ratio | > 10000 nM |
| Ac-RC[dA]P[dPhe(4-F)]RWC-NH2 (disulfide 2-8; SMILES CC(=O)N[C@@H](CCCNC(=N)N)C(=O)N[C@H]1CSSC[C@@H](C(N)=O)NC(=O)[C@H](Cc2c[nH]c3ccccc23)NC(=O)[C@H](CCCNC(=N)N)NC(=O)[C@@H](Cc2ccc(F)cc2)NC(=O)[C@@H]2CCCN2C(=O)[C@@H](C)NC1=O) [Ac-Arg-cyclo[Cys-D-Ala-Pro-D-Phe(p-F)-Arg-Trp-Cys]-NH2] | 24 nM | 12 ratio | 283 nM | 7 ratio | 169 nM | > 400 ratio | > 10000 nM |
| Ac-RC[dI]H[dF]RWC-NH2 (disulfide 2-8) [Ac-Arg-cyclo[Cys-D-Ile-His-D-Phe-Arg-Trp-Cys]-NH2] | 1 nM | 420 ratio | 420 nM | 0.69 ratio | 0.69 nM | 0.96 ratio | 0.96 nM |
| Ac-RC[dA]Y[dF]RWC-NH2 (disulfide 2-8; SMILES CC(=O)N[C@@H](CCCNC(=N)N)C(=O)N[C@H]1CSSC[C@@H](C(N)=O)NC(=O)[C@H](Cc2c[nH]c3ccccc23)NC(=O)[C@H](CCCNC(=N)N)NC(=O)[C@@H](Cc2ccccc2)NC(=O)[C@H](Cc2ccc(O)cc2)NC(=O)[C@@H](C)NC1=O) [Ac-Arg-cyclo[Cys-D-Ala-Tyr-D-Phe-Arg-Trp-Cys]-NH2] | 45.1 nM |  |  | 6.67 ratio | 301 nM | > 22.2 ratio | > 1000 nM |
| Ac-ECAH[dF]RWC-NH2 (disulfide 2-8; SMILES CC(=O)N[C@@H](CCC(=O)O)C(=O)N[C@H]1CSSC[C@@H](C(N)=O)NC(=O)[C@H](Cc2c[nH]c3ccccc23)NC(=O)[C@H](CCCNC(=N)N)NC(=O)[C@@H](Cc2ccccc2)NC(=O)[C@H](Cc2c[nH]cn2)NC(=O)[C@H](C)NC1=O) [Ac-Glu-cyclo[Cys-Ala-His-D-Phe-Arg-Trp-Cys]-NH2] | < 0.5 nM | > 2560 ratio | 1280 nM | > 3 ratio | 1.7 nM | > 20 ratio | 9.9 nM |
| Ac-RC[dV]H[dF]RWC-NH2 (disulfide 2-8) [Ac-Arg-cyclo[Cys-D-Val-His-D-Phe-Arg-Trp-Cys]-NH2] | 1.34 nM | 584 ratio | 782 nM | 0.93 ratio | 1.25 nM | 1.19 ratio | 1.59 nM |
| Ac-RC[dA]Q[dF]RWC-NH2 (disulfide 2-8; SMILES CC(=O)N[C@@H](CCCNC(=N)N)C(=O)N[C@H]1CSSC[C@@H](C(N)=O)NC(=O)[C@H](Cc2c[nH]c3ccccc23)NC(=O)[C@H](CCCNC(=N)N)NC(=O)[C@@H](Cc2ccccc2)NC(=O)[C@H](CCC(N)=O)NC(=O)[C@@H](C)NC1=O) [Ac-Arg-cyclo[Cys-D-Ala-Gln-D-Phe-Arg-Trp-Cys]-NH2] | 1.6 nM | 155 ratio | 255 nM | 40 ratio | 71 nM | 5 ratio | 8.6 nM |
| Ac-RC[dA]W[dF]RWC-NH2 (disulfide 2-8; SMILES CC(=O)N[C@@H](CCCNC(=N)N)C(=O)N[C@H]1CSSC[C@@H](C(N)=O)NC(=O)[C@H](Cc2c[nH]c3ccccc23)NC(=O)[C@H](CCCNC(=N)N)NC(=O)[C@@H](Cc2ccccc2)NC(=O)[C@H](Cc2c[nH]c3ccccc23)NC(=O)[C@@H](C)NC1=O) [Ac-Arg-cyclo[Cys-D-Ala-Trp-D-Phe-Arg-Trp-Cys]-NH2] | 34 nM | 7 ratio | 259 nM | 8 ratio | 273 nM | > 290 ratio | > 10000 nM |
| Ac-RC[dA]N[dF]RWC-NH2 (disulfide 2-8; SMILES CC(=O)N[C@@H](CCCNC(=N)N)C(=O)N[C@H]1CSSC[C@@H](C(N)=O)NC(=O)[C@H](Cc2c[nH]c3ccccc23)NC(=O)[C@H](CCCNC(=N)N)NC(=O)[C@@H](Cc2ccccc2)NC(=O)[C@H](CC(N)=O)NC(=O)[C@@H](C)NC1=O) [Ac-Arg-cyclo[Cys-D-Ala-Asn-D-Phe-Arg-Trp-Cys]-NH2] | 3 nM | 530 ratio | 1490 nM | 90 ratio | 248 nM | 30 ratio | 81 nM |
| Ac-R[hCys]A[dF]RWC-NH2 (disulfide 2-7; SMILES CC(=O)N[C@@H](CCCNC(=N)N)C(=O)N[C@H]1CCSSC[C@@H](C(N)=O)NC(=O)[C@H](Cc2c[nH]c3ccccc23)NC(=O)[C@H](CCCNC(=N)N)NC(=O)[C@@H](Cc2ccccc2)NC(=O)[C@H](C)NC1=O) [Ac-Arg-cyclo[hCys-Ala-D-Phe-Arg-Trp-Cys]-NH2] | 0.26 nM | 161 ratio | 42 nM | 15 ratio | 4 nM | 3.8 ratio | 1 nM |
| Ac-R[hCys][dA][dF]RW[Pen]-NH2 (disulfide 2-7; SMILES CC(=O)N[C@@H](CCCNC(=N)N)C(=O)N[C@H]1CCSSC(C)(C)[C@@H](C(N)=O)NC(=O)[C@H](Cc2c[nH]c3ccccc23)NC(=O)[C@H](CCCNC(=N)N)NC(=O)[C@@H](Cc2ccccc2)NC(=O)[C@@H](C)NC1=O) [Ac-Arg-cyclo[hCys-D-Ala-D-Phe-Arg-Trp-Pen]-NH2] | 13.7 nM | 159 ratio | 2180 nM | 15 ratio | 195 nM | 17 ratio | 233 nM |
| Ac-R[hCys][dA][dF]RWC-NH2 (disulfide 2-7; SMILES CC(=O)N[C@@H](CCCNC(=N)N)C(=O)N[C@H]1CCSSC[C@@H](C(N)=O)NC(=O)[C@H](Cc2c[nH]c3ccccc23)NC(=O)[C@H](CCCNC(=N)N)NC(=O)[C@@H](Cc2ccccc2)NC(=O)[C@@H](C)NC1=O) [Ac-Arg-cyclo[hCys-D-Ala-D-Phe-Arg-Trp-Cys]-NH2] | 7.5 nM | > 1340 ratio | > 10000 nM | 120 ratio | 888 nM | 420 ratio | 3160 nM |
| Ac-RC[dL]H[dF]RWC-NH2 (disulfide 2-8) [Ac-Arg-cyclo[Cys-D-Leu-His-D-Phe-Arg-Trp-Cys]-NH2] | 0.7 nM | 130 ratio | 91 nM | 0.68 ratio | 0.47 nM | 1.13 ratio | 0.79 nM |
| Ac-RC[dA]R[dF]RWC-NH2 (disulfide 2-8; SMILES CC(=O)N[C@@H](CCCNC(=N)N)C(=O)N[C@H]1CSSC[C@@H](C(N)=O)NC(=O)[C@H](Cc2c[nH]c3ccccc23)NC(=O)[C@H](CCCNC(=N)N)NC(=O)[C@@H](Cc2ccccc2)NC(=O)[C@H](CCCNC(=N)N)NC(=O)[C@@H](C)NC1=O) [Ac-Arg-cyclo[Cys-D-Ala-Arg-D-Phe-Arg-Trp-Cys]-NH2] | 2.7 nM |  |  | 2.31 ratio | 6.2 nM | 1.45 ratio | 3.9 nM |
